Test results: the supplement of paper PMC7877785
± gives the uncertainty stated by the source.

Assay: self-splicing fitness, log relative to wild type (ln ratio); higher = more splicing; Tetrahymena group I intron in knt gene, E. coli kanamycin selection, DiMSum; sequences stand for … in CUCUCU…GGAGGGAAAAGUUAUCAGGCAUGCACCUGGUAGCUAGUCUUUAAACCAAUAGAUUGCAUCGGUUUAAAAGGCAAGACCGUCAAAUUGCGGGAAAGGGGUCAACAGCCGUUCAGUACCAAGUCUCAGGGGAAACUUUGAGAUGGCCUUGCAAAGGGUAUGGUAAUAAGCUGACGGACAUGGUCCUAACCACGCAGCCAAGUCCUAAGUCAACAGAUCUUCUGUUGAUAUGGAUGCAGUUCACAGACUAAAUGUCGGUCGGGGAAGAUGUAUUCUUCUCAUAAGAUAUAGUCGGACCUCUCCUUAAUGGGAGCUAGCGGAUGAAGUGAUGCAACACUGGAGCCGCUGGGAACUAAUUUGUAUGCGAAAGUAUAUUGAUUAGUUUUGGAGUACUCGUGGUCG
How it was run: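 Library with all eight P1ex-region intron nucleotides randomised, intron inside the knt kanamycin-resistance gene on pET-22b(+), in E. coli BL21(DE3). Cells grew overnight at 37°C or 30°C on LB agar with or without 25 μg/mL kanamycin (plus 100 μg/mL carbenicillin, 50 μM IPTG, 0.2% rhamnose), in six replicate transformations. Pooled colonies were amplicon-sequenced on Illumina HiSeq 2500. DiMSum fitness is the error-weighted combination of wild-type-normalised replicate fold changes, kanamycin versus none.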

Sequence | self-splicing fitness (ln) (30 °C) | self-splicing fitness (ln) (37 °C)
CCUUAGCAAUAUUACGUGCC | -4.23 ± 0.25 | -2.41 ± 0.28
CCUUAGCAAUAUUACGUUGA | -3.24 ± 0.21 | -3.02 ± 0.24
CCUUAGCAAUAUUACGUUUA | -3.23 ± 0.26 | -2.21 ± 0.2
CGAAAGCAAUAUUACGAAGA | -2.12 ± 0.16 | -0.849 ± 0.13
CGAAAGCAAUAUUACGAAUA | -2.47 ± 0.29 | -2.14 ± 0.2
CGAAAGCAAUAUUACGAAUC | -2.03 ± 0.45 | -1.87 ± 0.26
CGAAAGCAAUAUUACGACCU | -0.917 ± 0.079 | -0.386 ± 0.11
CGAAAGCAAUAUUACGAGGC | -3.72 ± 0.2 | -1.88 ± 0.21
CGAAAGCAAUAUUACGAUAC | -1.99 ± 0.18 | -2.11 ± 0.38
CGAAAGCAAUAUUACGCAUA | -3.13 ± 0.25 | -2.72 ± 0.2
CGAAAGCAAUAUUACGCCAG | -0.884 ± 0.14 | -0.307 ± 0.21
CGAAAGCAAUAUUACGCGCG | -2.64 ± 0.16 | -1.34 ± 0.17
CGAAAGCAAUAUUACGGGCU | -2.74 ± 0.14 | -1.55 ± 0.17
CGAAAGCAAUAUUACGGGUA | -2.73 ± 0.16 | -2.57 ± 0.14
CGAAAGCAAUAUUACGGUAG | -0.561 ± 0.065 | -0.437 ± 0.085
CGAAAGCAAUAUUACGGUUG | -0.623 ± 0.057 | -0.494 ± 0.073
CGAAAGCAAUAUUACGUACC | -1.18 ± 0.13 | -0.845 ± 0.2
CGAAAGCAAUAUUACGUAUG | -1.15 ± 0.057 | -0.533 ± 0.083
CGAAAGCAAUAUUACGUGUA | -3 ± 0.13 | -2.35 ± 0.13
CGAAAGCAAUAUUACGUUAC | -3.15 ± 0.18 | -3.01 ± 0.26
CGACAGCAAUAUUACGAAAU | -3.15 ± 0.12 | -3.06 ± 0.19
CGACAGCAAUAUUACGAAGG | -1.94 ± 0.092 | -0.848 ± 0.13
CGACAGCAAUAUUACGAAUG | -1.1 ± 0.079 | -0.112 ± 0.1
CGACAGCAAUAUUACGAAUU | -3.51 ± 0.19 | -2.04 ± 0.18

Sequence | self-splicing fitness (ln) (30 °C) | self-splicing fitness (ln) (37 °C)
CGACAGCAAUAUUACGAGCA | -2.11 ± 0.18 | -1.26 ± 0.16
CGACAGCAAUAUUACGAUAC | -3.71 ± 0.25 | -2.96 ± 0.27
CGACAGCAAUAUUACGAUCG | -3.43 ± 0.2 | -2.11 ± 0.2
CGACAGCAAUAUUACGAUGG | -0.855 ± 0.072 | -0.172 ± 0.094
CGACAGCAAUAUUACGCCAA | -2.18 ± 0.28 | -3.28 ± 0.37
CGACAGCAAUAUUACGCCGA | -2.36 ± 0.11 | -0.991 ± 0.094
CGACAGCAAUAUUACGCCGG | -0.394 ± 0.059 | -0.272 ± 0.067
CGACAGCAAUAUUACGCGCA | -1.17 ± 0.13 | -0.0102 ± 0.12
CGACAGCAAUAUUACGCGCC | -2.02 ± 0.13 | -0.187 ± 0.17
CGACAGCAAUAUUACGCGCG | -2.61 ± 0.19 | -1.8 ± 0.18
CGACAGCAAUAUUACGCGUU | -4.77 ± 0.26 | -3.29 ± 0.18
CGACAGCAAUAUUACGCUUU | -5.56 ± 0.41 | -2.05 ± 0.15
CGACAGCAAUAUUACGGAAA | -1.98 ± 0.21 | -2.2 ± 0.18
CGACAGCAAUAUUACGGAGG | -1.91 ± 0.086 | -1.21 ± 0.12
CGACAGCAAUAUUACGGCAG | -0.376 ± 0.083 | 0.289 ± 0.094
CGACAGCAAUAUUACGGCCU | -1.57 ± 0.13 | -0.3 ± 0.14
CGACAGCAAUAUUACGGCUG | -3.32 ± 0.19 | -0.951 ± 0.16
CGACAGCAAUAUUACGUAGU | -3.12 ± 0.099 | -2.11 ± 0.12
CGACAGCAAUAUUACGUCAG | -2.38 ± 0.094 | -1.94 ± 0.12
CGACAGCAAUAUUACGUCGA | -3.04 ± 0.18 | -2.51 ± 0.15
CGACAGCAAUAUUACGUGCA | -1.57 ± 0.057 | -0.14 ± 0.07
CGACAGCAAUAUUACGUUAU | -3.7 ± 0.13 | -2.23 ± 0.12
CGAGAGCAAUAUUACGACAG | -2.82 ± 0.37 | -1.15 ± 0.32
